Test results from patent publication US20230167415A1.

What was measured:
[1] = molecular target: WNV IS98-ST1 M-I36F/A43G double mutant virions (E protein at the surface, M protein I36F and A43G) (West Nile virus, strain IS98-ST1); test: direct ELISA, coated UV-inactivated virus produced in Vero cells
[2] = molecular target: WNV IS98-ST1 M-I36F/A43G double mutant virions (E protein at the surface, M protein I36F and A43G) (West Nile virus, strain IS98-ST1); test: indirect non-competitive ELISA, Vero-produced virus captured by polyclonal anti-WNV, HRP-conjugated 4G2

Substance: Monoclonal antibody (mAb) 4G2 anti-Flavivirus E protein
- fold decrease in recognition compared to wild-type and M-A43G [1]: 1.2 fold
- fold decrease in recognition [2]: 1.2 to 2 fold
